The target of the experiment is T1, USP20 (Ubiquitin Specific Peptidase 20) on the HuProt protein microarray (human, UniProt Q9Y2K6 1-914).
T1 construct: ubiquitin specific peptidase 20, human, spot on the HuProt array of full-length recombinant human proteins; source: bought: HuProt protein microarray (CDI Labs), recombinant
The experiment can be described thus: peptide or protein array; HuProt human protein microarray (over 20,000 full-length recombinant human proteins); 3 μg biotinylated His-SPAST on the array for 8 h at 4 °C; detected with streptavidin-Alexa-Fluor 635. The settings on record: both partners purified.

T1 sequence (Q9Y2K6 whole entry): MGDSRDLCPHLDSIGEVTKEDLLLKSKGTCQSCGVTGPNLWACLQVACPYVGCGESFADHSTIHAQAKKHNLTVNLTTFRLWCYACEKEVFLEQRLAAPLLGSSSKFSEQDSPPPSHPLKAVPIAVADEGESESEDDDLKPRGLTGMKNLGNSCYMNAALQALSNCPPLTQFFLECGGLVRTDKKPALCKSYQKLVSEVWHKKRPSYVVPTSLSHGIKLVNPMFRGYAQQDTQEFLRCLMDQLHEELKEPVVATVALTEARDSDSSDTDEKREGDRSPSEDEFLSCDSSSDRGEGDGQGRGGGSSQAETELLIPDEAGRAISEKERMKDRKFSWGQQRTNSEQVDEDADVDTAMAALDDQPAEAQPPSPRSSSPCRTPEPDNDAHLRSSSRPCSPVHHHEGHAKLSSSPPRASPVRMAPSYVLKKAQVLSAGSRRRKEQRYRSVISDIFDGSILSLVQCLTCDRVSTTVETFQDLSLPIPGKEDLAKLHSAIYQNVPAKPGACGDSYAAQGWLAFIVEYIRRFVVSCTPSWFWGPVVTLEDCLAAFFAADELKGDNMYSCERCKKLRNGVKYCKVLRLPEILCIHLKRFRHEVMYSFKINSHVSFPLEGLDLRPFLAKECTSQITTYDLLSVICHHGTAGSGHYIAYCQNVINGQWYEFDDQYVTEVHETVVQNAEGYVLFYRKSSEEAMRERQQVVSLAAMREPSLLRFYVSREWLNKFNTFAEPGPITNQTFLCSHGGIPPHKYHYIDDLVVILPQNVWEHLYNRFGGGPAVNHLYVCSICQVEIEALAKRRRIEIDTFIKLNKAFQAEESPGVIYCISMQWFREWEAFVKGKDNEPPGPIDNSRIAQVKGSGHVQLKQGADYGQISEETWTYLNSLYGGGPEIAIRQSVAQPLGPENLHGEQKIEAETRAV

B1: biotinylated His-SPAST-M1 (natural protein, human, UniProt Q9UBP0 1-616, looked up)
chain: MNSPGGRGKKKGSGGASNPVPPRPPPPCLAPAPPAAGPAPPPESPHKRNLYYFSYPLFVGFALLRLVAFHLGLLFVWLCQRFSRALMAAKRSSGAAPAPASASAPAPVPGGEAERVRVFHKQAFEYISIALRIDEDEKAGQKEQAVEWYKKGIEELEKGIAVIVTGQGEQCERARRLQAKMMTNLVMAKDRLQLLEKMQPVLPFSKSQTDVYNDSTNLACRNGHLQSESGAVPKRKDPLTHTSNSLPRSKTVMKTGSAGLSGHHRAPSYSGLSMVSGVKQGSGPAPTTHKGTPKTNRTNKPSTPTTATRKKKDLKNFRNVDSNLANLIMNEIVDNGTAVKFDDIAGQDLAKQALQEIVILPSLRPELFTGLRAPARGLLLFGPPGNGKTMLAKAVAAESNATFFNISAASLTSKYVGEGEKLVRALFAVARELQPSIIFIDEVDSLLCERREGEHDASRRLKTEFLIEFDGVQSAGDDRVLVMGATNRPQELDEAVLRRFIKRVYVSLPNEETRLLLLKNLLCKQGSPLTQKELAQLARMTDGYSGSDLTALAKDAALGPIRELKPEQVKNMSASEMRNIRLSDFTESLKKIKRSVSPQTLEAYIRWNKDFGDTTV
modifications: biotin (biotinylated, site not stated)
notes: The methods call it His-SPAST; the results call it His-SPAST-M1; also called His-tagged SPAST protein; source: E. coli BL21 (pET28a-His-SPAST), purified (Ni-NTA)
For the molecule B1, the binding result was “binds”.
